# Paper PMC4070925
# Substitutions are numbered along the chain they refer to.
# B1: Apt-29 (structured_DNA)
# DNA: AGTCCGTGGTAGGGCAGGTTGGGGTGACT
# B2: Truncate III (structured_DNA)
# DNA: GGTTGGTGTGGTTGGTTGGTTGGCGTTCAAAGCAGTCTTGGGCTAAGTCCGTGGTAGGGCAGGTTGGGGTGACT
# B3: Bivalent Linker 6 (structured_DNA)
# DNA: AGATGCCTGTCGAGCATGCTGGTTGGTGTGGTTGGCGGGGGCCCTCTATAGTTGCGTTCTGGATGAGTCCGTGGTAGGGCAGGTTGGGGTGACTGTAGCTAAACTGCTTTGTCGACGGG
# B4: Truncate I (structured_DNA)
# DNA: GGTTGGTGTGGTTGGTTGGTTGGCGTTCAAAGCAGTCTTGGGCTAAGTCCGTGGTAGGGCAGGTTGGGGTGACTGTAGCTAAACTGCTTTGTCGACGGG
# B5: Bivalent Linker 5 (structured_DNA)
# DNA: AGATGCCTGTCGAGCATGCTGGTTGGTGTGGTTGGAAGTAGGTGGTTCAAAGCAGTGAAGGGTACAGTCCGTGGTAGGGCAGGTTGGGGTGACTGTAGCTAAACTGCTTTGTCGACGGG
# B6: Truncate II (structured_DNA)
# DNA: AGATGCCTGTCGAGCATGCTGGTTGGTGTGGTTGGTTGGTTGGCGTTCAAAGCAGTCTTGGGCTAAGTCCGTGGTAGGGCAGGTTGGGGTGACT
# B7: Bivalent Linker 2 (structured_DNA)
# DNA: AGATGCCTGTCGAGCATGCTGGTTGGTGTGGTTGGTTGGTTGGCGTTCAAAGCAGTCTTGGGCTAAGTCCGTGGTAGGGCAGGTTGGGGTGACTGTAGCTAAACTGCTTTGTCGACGGG
# B8: Bivalent Linker 1 (structured_DNA)
# DNA: AGATGCCTGTCGAGCATGCTGGTTGGTGTGGTTGGATTGGGGGGCAGAATGCCAGTTTAGCGTACAGTCCGTGGTAGGGCAGGTTGGGGTGACTGTAGCTAAACTGCTTTGTCGACGGG
# B9: Bivalent Linker 4 (structured_DNA)
# DNA: B8 DNA with A36G, G40T, C45A, G47T, T50A, G51A, C52G
# B10: Bivalent Linker 3 (structured_DNA)
# DNA: AGATGCCTGTCGAGCATGCTGGTTGGTGTGGTTGGGTAGGGGCCCAGCATGACAGTTTTTGCCAAAGTCCGTGGTAGGGCAGGTTGGGGTGACTGTAGCTAAACTGCTTTGTCGACGGG
# Molecular target: thrombin (UniProt P00734;P00734 315-363;364-622)
# Test: plate binding assay (streptavidin-peroxidase); Thrombin-coated plate; 5'-biotin aptamer in HEPES buffer (full composition not in material) 1 h; washes 40 mM HEPES pH 7.5, 0.05% Tween-20; block 1 mg/ml BSA +
row,Binder,apparent K (half saturation)
1,B1,0.7 nM
2,B2,0.5 nM
3,B3,~20 nM
4,B4,1 nM
5,B5,1 nM
6,B6,0.5 nM
7,B7,0.2 nM
8,B8,1.4 nM
9,B9,0.4 nM
10,B10,0.4 nM
